Starred links: 1 amine or outer side, 2 acyl side, 3 side chain; linkers in the order of their positions; H or OH if unused. Positions of bridges follow the written chain, without caps; N, C: chain ends. Non-standard residues stand in square brackets, D forms with d. Groups on a side chain read outwards from the residue. No end group written: not given here. *: point of attachment. C20 diacid = O=C(O)CCCCCCCCCCCCCCCCCCC(=O)*; C18 diacid = O=C(O)CCCCCCCCCCCCCCCCC(=O)*; 17‑carboxyheptanoyl = not defined here; γGlu = O=C(O)[C@H](CCC(=O)[*:2])N[*:1]; AEEA = NCCOCCOCC(=O)O

Our source for the Potency luciferase assay values is patent publication US20100222269A1 (Novo Nordisk, published 2010).

B1: N-alpha-(17-carboxyheptanoyl)-Glu-[Glu1]-pramlintide (1-37) (peptide)
peptide: {17‑carboxyheptanoyl}-EECNTATCATQRLANFLVHSSNNFGPILPPTNVGSNTY-NH2
modifications: disulfide 3-8 (inferred); reading uncertain; also: printed as N-alpha-(17-carboxyheptanoyl)-Glu-[Glu1]-pramlintide (1-37)
B2: N-alpha-(17-carboxyheptanoyl)-[Arg18,Leu23,Val26]-pramlintide (2-37) (peptide)
peptide: {17‑carboxyheptanoyl}-CNTATCATQRLANFLVRSSNNLGPVLPPTNVGSNTY-NH2
modifications: disulfide 1-6 (inferred); reading uncertain; also: printed as N-alpha-(17-carboxyheptanoyl)-[Arg18,Leu23,Val26]-pramlintide (2-37)
B3: N-alpha-[(S)-4-carboxy-4-(17-carboxyheptadecanoylamino)butyryl]-[Arg18,Leu23,Val26]-pramlintide (2-37) (peptide)
peptide: CNTATCATQRLANFLVRSSNNLGPVLPPTNVGSNTY
modifications: N-alpha-[(S)-4-carboxy-4-(17-carboxyheptadecanoylamino)butyryl] on the N-terminal Cys2; disulfide bridge between the two Cys; C-terminal amide
B4: N-alpha-(2-{2-[2-(2-{2-[2-((S)-4-Carboxy-4-{4-carboxy-4-[4-carboxy-4-(17-carboxyheptadecanoylamino)butyrylamino]butyrylamino}butyrylamino) … (peptide)
peptide: B3 peptide
modifications: N-alpha-(2-{2-[2-(2-{2-[2-((S)-4-Carboxy-4-{4-carboxy-4-[4-carboxy-4-(17-carboxyheptadecanoylamino)butyrylamino]butyrylamino}butyrylamino) ethoxy}ethoxy]acetylamino)ethoxy}ethoxy]acetyl) on the N-terminal Cys2; disulfide bridge between the two Cys; C-terminal amide
B5: N-alpha-(17-carboxyheptanoyl)-[Arg18]-pramlintide (1-37) (peptide)
peptide: {17‑carboxyheptanoyl}-KCNTATCATQRLANFLVRSSNNFGPILPPTNVGSNTY-NH2
modifications: disulfide 2-7 (inferred); reading uncertain; also: printed as N-alpha-(17-carboxyheptanoyl)-[Arg18]-pramlintide (1-37)

Chain of Amylin 3(a) receptor (human calcitonin receptor (CTa) with RAMP-3) on BHK570 cells (P30988 25-474): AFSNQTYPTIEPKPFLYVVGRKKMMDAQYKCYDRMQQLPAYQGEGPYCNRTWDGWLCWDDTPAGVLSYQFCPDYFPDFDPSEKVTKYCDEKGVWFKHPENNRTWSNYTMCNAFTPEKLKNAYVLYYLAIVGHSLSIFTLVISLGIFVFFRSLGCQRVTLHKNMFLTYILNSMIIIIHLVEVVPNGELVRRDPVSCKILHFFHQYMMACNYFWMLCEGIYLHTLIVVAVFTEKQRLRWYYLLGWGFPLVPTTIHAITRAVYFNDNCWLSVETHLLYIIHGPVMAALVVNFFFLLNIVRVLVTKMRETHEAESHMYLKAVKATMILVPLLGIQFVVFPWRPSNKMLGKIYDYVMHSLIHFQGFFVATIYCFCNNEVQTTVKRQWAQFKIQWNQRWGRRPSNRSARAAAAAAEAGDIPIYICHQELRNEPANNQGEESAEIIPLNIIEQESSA

This experiment has as its target Amylin 3(a) receptor (human calcitonin receptor (CTa) with RAMP-3) on BHK570 cells (human, UniProt P30988 25-474). In words: cell-based or functional assay.
As to KCK([γGlu-C18 diacid])TATCATQRLANFLVRSSQNLGPVLPPTNVGSNTY-NH2 (disulfide 2-7 (inferred)), the Potency luciferase assay is 0.04 nM.
Take {C20 diacid}-EEEECQTATCATQRLANFLVRSSQNLGPVLPPTNVGSNTY-NH2 (disulfide 5-10 (inferred)) [N-alpha-(19-carboxynonadecanoyl)-Glu-Glu-Glu-[Glu1,Gln3,Arg18,Gln21,Leu23,Val26]-pramlintide (1-37)]: the Potency luciferase assay turned out to be 2 nM.
With {C20 diacid}-EERECQTATCATQRLANFLVRSSQNLGPVLPPTNVGSNTY-NH2 (disulfide 5-10 (inferred)) [N-alpha-(19-carboxynonadecanoyl)-Glu-Glu-Arg-[Glu1,Gln3,Arg18,Gln21,Leu23,Val26]-pramlintide (1-37)] the figure was 0.09 nM.
Consider KCK([AEEA-Glu-Glu-C20 diacid])TATCATQRLANFLVRSSQNLGPVLPPTNVGSNTY-NH2 (disulfide 2-7 (inferred)), for which the Potency luciferase assay was 0.3 nM.
With KCK([AEEA-4‑(16-1H-tetrazol-5-yl-hexadecanoylsulfamoyl)butyryl])TATCATQRLANFLVHSSNNFGPILPPTNVGSNTY-NH2 (disulfide 2-7 (inferred)) the figure was 0.1 nM.
Regarding KCK(17‑carboxyheptanoyl)TATCATQRLANFLVRSSNNFGPILPPTNVGSNTY-NH2 (disulfide 2-7 (inferred)) [N-epsilon3-(17-carboxyheptanoyl)-[Lys3,Arg18]-pramlintide (1-37)], the Potency luciferase assay was 0.06 nM.
For the molecule ECK(17‑carboxyheptanoyl)TATCATQRLANFLVESSNNFGPILPPTNVGSNTY-NH2 (disulfide 2-7 (inferred)) [N-epsilon3-(17-carboxyheptanoyl)-[Glu1,Lys3,Glu18]-pramlintide (1-37)], the Potency luciferase assay turned out to be 0.03 nM.
In the case of B1, the Potency luciferase assay was determined as 0.4 nM.
With {C20 diacid}-E[AEEA]ECQTATCATQRLANFLVRSSQNLGPVLPPTNVGSNTY-NH2 (disulfide 4-9 (inferred)) the figure was 0.4 nM.
The result for KCK([AEEA-AEEA-γGlu-γGlu-γGlu-C18 diacid])TATCATQRLANFLVPSSNNFGPILPPTNVGSNTY-NH2 (disulfide 2-7 (inferred)) reads 20 nM; that for {C20 diacid}-EERECNTATCATQRLANFLVHSSNNFGPILPPTNVGSNTY-NH2 (disulfide 5-10 (inferred)) [N-alpha-(19-carboxynonadecanoyl)-Glu-Glu-Arg-[Glu1]-pramlintide (1-37)], 0.08 nM; that for K([γGlu-C18 diacid])CGTATCATQRLANFLARSSNNFGPILSPTNVGSNTY-NH2 (disulfide 2-7 (inferred)), 0.07 nM.
In the case of KCK([AEEA-AEEA-γGlu-C18 diacid])TATCATQRLANFLVPSSNNFGPILPPTNVGSNTY-NH2 (disulfide 2-7 (inferred)), the Potency luciferase assay worked out at 10 nM.
With B2 the figure was 0.1 nM; with KCK(C20 diacid)TATCATQRLANFLVHSSNNFGPILPPTNVGSNTY-NH2 (disulfide 2-7 (inferred)) [N-epsilon3-(19-carboxynonadecanoyl)-[Lys3]-pramlintide (1-37)], 0.05 nM; with B3, 0.03 nM.
The result for B4 reads 0.9 nM; that for KCK([AEEA-AEEA-C18 diacid])TATCATQRLANFLVHSSNNFGPILPPTNVGSNTY-NH2 (disulfide 2-7 (inferred)), 0.1 nM.
With KCNTATCATQRLANFLVHSSNNFGK([AEEA-AEEA-γGlu-γGlu-γGlu-γGlu-C18 diacid])ILPPTNVGSNTY-NH2 (disulfide 2-7 (inferred)) the figure was 0.3 nM.
As to KCK([γGlu-C18 diacid])TATCATQRLANFLVPSSNNFGPILPPTNVGSNTY-NH2 (disulfide 2-7 (inferred)) [N-epsilon3-[(S)-4-carboxy-4-(17-carboxyheptadecanoylamino)butyryl]-[Lys3,Pro18]-pramlintide (1-37)], the Potency luciferase assay turned out to be 0.7 nM.
With KCK(C18 diacid)TATCATQRLANFLVHSSNNFGPILPPTNVGSNTY-NH2 (disulfide 2-7 (inferred)) [N-epsilon3-(17-carboxyheptadecanoyl)-[Lys3]-pramlintide (1-37)] the figure was 0.05 nM.
The result for KCK([Glu-Glu-Glu-Glu-C20 diacid])TATCATQRLANFLVRSSQNLGPVLPPTNVGSNTY-NH2 (disulfide 2-7 (inferred)) reads 0.6 nM; that for EERECNTATCATQRLANFLVHSSNNFGPILPPTNVGSNTY-NH2 (disulfide 5-10 (inferred); not fully specified (N-terminus)) [N-alpha-[4-(16-1H-tetrazol-5-yl-hexadecanoylsulfamoyl)-butyryl]-Glu-Glu-Arg-[Glu1]pramlintide (1-37)], 0.09 nM.
With B5 the figure was 0.03 nM.
Take KCNTATCATQRLANFLVHSSNNFGK([γGlu-C18 diacid])ILPPTNVGSNTY-NH2 (disulfide 2-7 (inferred)) [N-epsilon25-[(S)-4-carboxy-4-(17-carboxyheptadecanoylamino)butyryl]-[Lys25]-pramlintide (1-37)]: the Potency luciferase assay worked out at 0.09 nM.
As to KCK([AEEA-AEEA-γGlu-C20 diacid])TATCATQRLANFLVHSSNNFGPILPPTNVGSNTY-NH2 (disulfide 2-7 (inferred)), the Potency luciferase assay was found to be 0.3 nM.
